In the supplement of paper PMC9876800:

Test system: peptide library, one residue held at a place counted from the S/T acceptor
Assay: relative phosphorylation of the sub-library (ratio to the mean residue at this position); higher = residue favoured
Details: human
Outline: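 In 384-well plates, purified recombinant kinases (human or orthologue constructs) were incubated for 90 min under kinase-specific conditions with 50 μM biotinylated degenerate peptide sub-libraries and 50 μM ATP spiked with γ-32P-ATP. Each sub-library fixed a single residue at one position around a central Ser/Thr. Relative sub-library phosphorylation, measured by phosphorimaging and densitometry of streptavidin membrane spots, is given as a ratio to the mean residue at that position.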

Chain of PRKD1, construct: Full length (Q15139 whole entry, looked up): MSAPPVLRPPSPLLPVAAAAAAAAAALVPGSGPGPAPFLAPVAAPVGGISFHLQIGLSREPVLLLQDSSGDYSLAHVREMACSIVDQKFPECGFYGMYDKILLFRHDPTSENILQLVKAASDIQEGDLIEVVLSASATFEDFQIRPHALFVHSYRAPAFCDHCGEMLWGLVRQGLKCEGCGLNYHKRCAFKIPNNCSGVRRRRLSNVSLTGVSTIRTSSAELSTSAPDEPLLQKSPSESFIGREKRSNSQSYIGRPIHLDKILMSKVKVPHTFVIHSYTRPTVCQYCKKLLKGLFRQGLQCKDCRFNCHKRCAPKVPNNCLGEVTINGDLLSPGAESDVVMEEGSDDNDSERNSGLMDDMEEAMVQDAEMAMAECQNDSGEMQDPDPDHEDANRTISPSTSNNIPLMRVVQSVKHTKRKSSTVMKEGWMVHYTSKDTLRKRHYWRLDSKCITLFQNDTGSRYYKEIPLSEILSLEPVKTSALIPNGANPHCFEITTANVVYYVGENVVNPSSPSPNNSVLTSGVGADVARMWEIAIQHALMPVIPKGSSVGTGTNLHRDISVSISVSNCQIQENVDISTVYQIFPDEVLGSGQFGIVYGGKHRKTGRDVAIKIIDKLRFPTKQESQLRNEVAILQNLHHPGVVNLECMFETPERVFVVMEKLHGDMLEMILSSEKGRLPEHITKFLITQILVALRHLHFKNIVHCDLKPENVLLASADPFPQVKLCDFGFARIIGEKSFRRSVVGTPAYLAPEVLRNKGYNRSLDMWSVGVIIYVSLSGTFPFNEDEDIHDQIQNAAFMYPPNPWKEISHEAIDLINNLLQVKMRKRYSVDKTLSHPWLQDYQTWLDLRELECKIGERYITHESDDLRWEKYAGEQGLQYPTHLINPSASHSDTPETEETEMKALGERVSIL
Chain of PRKX, construct: Full length (P51817 whole entry, looked up): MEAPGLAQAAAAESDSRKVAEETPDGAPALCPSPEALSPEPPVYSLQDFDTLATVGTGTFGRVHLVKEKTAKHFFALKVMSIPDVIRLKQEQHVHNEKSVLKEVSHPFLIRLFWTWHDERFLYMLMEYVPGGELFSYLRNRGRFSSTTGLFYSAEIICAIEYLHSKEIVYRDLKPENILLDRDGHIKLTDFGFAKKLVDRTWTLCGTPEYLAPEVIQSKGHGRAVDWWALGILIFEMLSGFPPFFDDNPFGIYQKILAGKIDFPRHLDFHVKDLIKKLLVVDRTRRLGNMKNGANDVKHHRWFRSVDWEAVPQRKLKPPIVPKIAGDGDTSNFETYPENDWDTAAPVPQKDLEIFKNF

PRKD1, construct: Full length (from UniProt Q15139)
relative phosphorylation
Details | at +1 | at +2 | at +3 | at +4 | at -1 | at -2 | at -3 | at -4 | at -5
A fixed | 0.979 | 1.13 | 0.873 | 1.1 | 0.938 | 1.9 | 1.38 | 1.82 | 1.63
D fixed | 0.653 | 1.21 | 1.14 | 1.37 | 0.869 | 0.32 | 0.243 | 0.514 | 0.411
E fixed | 0.53 | 0.784 | 0.839 | 1.05 | 0.564 | 0.578 | 0.347 | 0.925 | 0.362
F fixed | 0.964 | 0.86 | 0.811 | 0.885 | 0.467 | 0.609 | 0.47 | 0.792 | 0.668
G fixed | 1.19 | 1.52 | 1.75 | 1.39 | 0.878 | 0.682 | 0.919 | 1.86 | 0.708
H fixed | 1.05 | 1.04 | 0.95 | 1.23 | 0.823 | 0.726 | 0.802 | 0.897 | 0.506
I fixed | 0.989 | 0.505 | 0.669 | 0.601 | 0.383 | 0.552 | 0.284 | 0.694 | 1.03
K fixed | 0.619 | 0.518 | 0.582 | 0.651 | 1.79 | 1.78 | 1.46 | 1.09 | 0.414
L fixed | 1.02 | 0.66 | 0.887 | 0.674 | 0.863 | 0.735 | 0.346 | 0.791 | 3.41
M fixed | 1.22 | 0.946 | 0.886 | 0.924 | 0.945 | 1.79 | 0.653 | 1.25 | 0.713
N fixed | 2.19 | 1.9 | 1.2 | 1.31 | 2.05 | 0.912 | 0.829 | 0.831 | 0.537
P fixed | 0.369 | 1.81 | 2.37 | 1.46 | 2.43 | 0.593 | 1.49 | 0.656 | 1.34
Q fixed | 1.47 | 1.1 | 1.13 | 1.25 | 1.27 | 2.26 | 0.865 | 1.26 | 0.953
R fixed | 0.537 | 0.486 | 0.364 | 0.436 | 0.703 | 1.46 | 5.06 | 1.12 | 1.29
V fixed | 1.04 | 0.688 | 0.735 | 0.624 | 0.613 | 1.01 | 0.411 | 0.844 | 1.61
W fixed | 0.966 | 0.971 | 0.889 | 0.963 | 0.535 | 0.455 | 0.677 | 0.787 | 0.538
Y fixed | 1.22 | 0.86 | 0.926 | 1.07 | 0.873 | 0.644 | 0.777 | 0.857 | 0.878
pThr fixed | 0.596 | 0.624 | 0.842 | 0.939 | 0.207 | 0.27 | 0.295 | 0.467 | 0.28
pTyr fixed | 0.774 | 0.836 | 0.826 | 1.12 | 0.69 | 0.357 | 0.306 | 0.533 | 0.624

PRKX, construct: Full length (from UniProt P51817)
relative phosphorylation
Details | at +1 | at +2 | at +3 | at +4 | at -1 | at -2 | at -3 | at -4 | at -5
A fixed | 0.71 | 1.3 | 0.688 | 0.785 | 0.651 | 0.289 | 0.299 | 1.03 | 1.08
D fixed | 0.862 | 2.53 | 1.6 | 2.09 | 0.698 | 0.224 | 0.2 | 0.876 | 1.11
E fixed | 0.814 | 1.04 | 1.32 | 1.61 | 0.424 | 0.2 | 0.208 | 0.881 | 0.985
F fixed | 0.849 | 0.505 | 0.697 | 0.599 | 0.425 | 0.212 | 0.128 | 0.515 | 0.596
G fixed | 1.06 | 1.27 | 1.49 | 1.08 | 1.29 | 0.382 | 0.477 | 1.1 | 1.4
H fixed | 0.919 | 1.16 | 1.31 | 1.04 | 1.18 | 0.662 | 1.14 | 1.09 | 1.26
I fixed | 0.872 | 0.411 | 0.344 | 0.522 | 0.184 | 0.143 | 0.111 | 0.357 | 0.528
K fixed | 1.55 | 0.713 | 1.38 | 1.12 | 2.79 | 4.76 | 3.29 | 2.53 | 2.14
L fixed | 0.859 | 0.47 | 0.627 | 0.572 | 0.399 | 0.185 | 0.112 | 0.451 | 0.507
M fixed | 0.884 | 0.504 | 0.462 | 0.643 | 0.534 | 0.176 | 0.134 | 0.575 | 0.651
N fixed | 1.41 | 1.47 | 1.52 | 1.48 | 1.7 | 0.343 | 0.383 | 0.914 | 1.11
P fixed | 0.584 | 1.84 | 1.24 | 1.3 | 1.55 | 0.395 | 0.797 | 1.22 | 0.811
Q fixed | 1.47 | 1.24 | 1.36 | 1.23 | 1.41 | 0.483 | 0.444 | 1.18 | 0.807
R fixed | 1.57 | 0.881 | 1.13 | 1.06 | 2.37 | 7.88 | 8.71 | 2.58 | 2.12
V fixed | 0.801 | 0.498 | 0.413 | 0.623 | 0.217 | 0.143 | 0.112 | 0.412 | 0.454
W fixed | 1.02 | 0.624 | 0.752 | 0.637 | 0.457 | 0.295 | 0.246 | 0.686 | 0.731
Y fixed | 0.766 | 0.548 | 0.669 | 0.608 | 0.711 | 0.234 | 0.204 | 0.613 | 0.71
pThr fixed | 1.32 | 1.05 | 1.35 | 2.62 | 0.462 | 0.431 | 0.421 | 0.921 | 1.04
pTyr fixed | 1.54 | 1.38 | 1.3 | 1.55 | 0.999 | 0.374 | 0.345 | 0.864 | 0.882
